The test system of series [1] is iPS cells. The series is described as follows: Example 6: evaluation of undifferentiated state maintainability (10 passages). As to conditions: for shape of iPS cells after 10 passages: Essential 8 and NutriStem not containing 2-mercaptoethanol, FIGS. 8A to 8D. Format: cell-based, human. On the procedure: iPS cells were seeded onto cell culture surfaces coated with RCP-11 and RCP-5 and cultured in Essential 8. Every five to seven days after seeding, cell culture surfaces coated with RCP-11 and RCP-5 were newly prepared. The iPS cells were treated with TryPLE Select, separated into a single cell, and then collected. Thereafter, the iPS cells were subcultured by being seeded onto the newly prepared cell culture surfaces coated with RCP-11 and RCP-5. Under the conditions described above, the cells were cultured for 10 passages.
The iPS cells cultured for 10 passages on the RCP-11-coated surface were immobilized using 4 v/v % paraformaldehyde, and the membrane permeability was enhanced by using 1% by mass of Triton-X/PBS. After the cells were subjected to a blocking treatment using an Image IT Signal Enhancer (Invitrogen), an anti-NANOG antibody (AF 1997, R&D Systems, Inc.), an anti-OCT 3/4 antibody, an anti-SSEA-3 antibody, an anti-S SEA-4 antibody, a anti-Tra-1-60 antibody, and an anti-Tra-1-81 antibody (Stemcell Technologies Inc), an Alexa Fluor 555 binding rabbit anti-goat IgG antibody (Invitrogen), an FITC binding goat anti-mouse IgM antibody (Stemcell Technologies Inc), and DAPI (Dojindo Molecular Technologies, Inc.) were added thereto for labeling, and the cells were imaged using a fluorescence microscope.
In FIGS. 8A to 8D, the images on the left side are full images of the colony, and the images on the right side are magnified images. The scale bar in FIGS. 8A to 8D indicates 500 μm.
In FIGS. 9A to 9F, each of the images of stained cells is an image of stained iPS cells cultured on the RCP-11-coated surface by using Essential 8. The images on the left side are images of the cells stained with DAPI, and the images on the right side are images of the cells stained with NANOG (FIG. 9A), OCT 3/4 (FIG. 9B), SSEA-3 (FIG. 9C), SSEA-4 (FIG. 9D), Tra-1-60 (FIG. 9E), and Tra-1-81 (FIG. 9F). The scale bar in FIGS. 9A to 9F indicates […].

Series [2] in a line: Evaluation 1 about amount of residual polypeptide adsorbed (ELISA, media). It counts as physicochemical. As to conditions: for Residual rate of polypeptide (%): four days after the starting of culture, amount adsorbed immediately after start = 100, coated at 100 μg/ml; for residual rate of adsorbed polypeptide, medium not containing versus containing 2-mercaptoethanol: FIGS. 5 and 6 and Table 13. The method, then:
RCP-11 and RCP-5 were prepared by using a predetermined buffer (the dialysis buffer used in <GRAVY value and aggregation characteristics> of reference examples) such that their concentration became 100 μg/ml. The polypeptides were added to the respective wells of a plasma-treated 96-well plate made of polystyrene having a plasma-treated cell culture surface and held as they were for 2 hours at 37° C. so as to be adsorbed onto the plate, thereby obtaining a polypeptide-coated surface. After the wells were washed with PBS, the respective media were added thereto, followed by incubation at 37° C. for a predetermined time. The wells were washed with PBS, and then 20% by mass of an immunoblocking solution (DS Pharma Biomedical Co., Ltd.) was added thereto, followed by incubation for 30 minutes at 37° C., thereby performing a blocking treatment. After the wells were washed with PBS-T (PBS containing 0.05% by mass of Tween-20), 5% by mass of an immunoblocking solution (DS Pharma Biomedical Co., Ltd.) containing an anti-human vitronectin antibody (Thermo Fisher Scientific Inc.) was added thereto, followed by incubation for 2 hours at room temperature. After the wells were washed with PBS-T, a 5% by mass of immunoblocking solution (DS Pharma Biomedical Co., Ltd.) containing an HRP-labeled anti-IgG antibody (Thermo Fisher Scientific Inc.) was added thereto, followed by incubation for 1 hour at room temperature. After the wells were washed with PBS-T, a TMB Substrate (Wako Pure Chemical Industries, Ltd.) was added thereto for developing color, and then 1 N hydrochloric acid was added thereto to stop the color reaction. By using a plate reader, the absorbance was measured, and the amount of the residual RCP-11 and RCP-5 was determined (absorption wavelength: 450 nm, control wavelength: 650 nm).
In Table 13, the residual rate of RCP-11 and RCP-5 is expressed as a ratio (%) calculated by regarding the amount of the polypeptides adsorbed immediately after the starting of culture as being 100.
Background: ELISA stands for enzyme-linked immunosorbent assay.

Series [3] relates to human iPS cells ("Tic"). The series is described as follows: Cell growth property evaluation 1 (different media). It counts as cell-based. As to conditions: for cell growth properties with Essential 8 or NutriStem not containing 2-mercaptoethanol versus media containing it: Table 11; for Cell growth rate: polypeptide 100 μg/ml, 72 hours, RCP-11 with Essential 8 = 100%, n=3. On the procedure:
Furthermore, for evaluation, human iPS cells (“Tic”) that were retention-cultured as described in <Cell adhesiveness evaluation 1> of reference example were treated with TrypLE Select (Invitrogen) for 5 minutes at 37° C. and separated into a single cell. After being subjected to centrifugation for 2 minutes at 300 rpm, the cells were collected, suspended in each medium, and used for the evaluation in each example. Herein, Y-27362 ((R)-(+)-trans-N-(4-pyridyl)-4-(1-aminoethyl)-cyclohexane carboxamide.2HCl.H2O, an Rho binding kinase inhibitor, Wako Pure Chemical Industries, Ltd.) was added to all of the media at a final concentration of 10 μM.
Each of RCP-11, RCP-5, and recombinant laminin (Human Recombinant Laminin-511: BIOLAMINA AB) as control was added to and suspended in a predetermined buffer (a dialysis buffer used in <GRAVY value and aggregation characteristics> of reference examples for RCP-11 and RCP-5, and PBS for the recombinant laminin) at the final concentration shown in Table 11, thereby preparing polypeptide solutions. The polypeptide solutions were added to the respective wells of a plasma-treated 96-well plate made of polystyrene (BD Falcon) having a plasma-treated cell culture surface and held as they were so as to be adsorbed onto the plate for 2 hours at 37° C. In this way, a peptide-treated 96-well plate having a polypeptide-coated surface was obtained. The iPS cells suspended in the respective media shown in Table 11 were seeded into the respective wells of the obtained peptide-treated 96-well plate at a cell density of 10,000 cells/well. After the cells were cultured for 72 hours, nonadhesive cells were washed off with PBS, and only adhesive cells were immobilized using 4% by mass of paraformaldehyde (Wako Pure Chemical Industries, Ltd.). By using an Attophos (registered trademark) AP Fluorescent Substrate System (Promega Corporation), the ALP activity was calculated, and from the calibration curve, the number of undifferentiated iPS cells having the ALP activity was calculated. In Table 11, the cell adhesion rate is expressed as a ratio calculated by regarding the number of pluripotent stem cells after the culture for 72 hours in a combination of RCP-11 and Essential 8 as being 100%. n=3.
In Table 11, “% by mass” in the concentration of 2-meracptoethanol is a proportion (w/v %) of mass (g) of 2-meracptoethanol per 100 mL of the total volume of the medium at the time of culture.

Where [4] appears, read: medium Essential8, 2-mercaptoethanol 0, 10,000 cells/well.
[5] abbreviates: medium NutriStem, 2-mercaptoethanol 0.
Where [6] appears, read: medium ReproFF2, 2-mercaptoethanol 102.4 μM (0.0008% by mass).
Setting [7] is: medium StemPro hESC SFM, 2-mercaptoethanol 100 μM (0.00078% by mass).
Setting [8] is: medium TeSR2, 2-mercaptoethanol 48.6 μM (0.00038% by mass).

The source of these data is patent US10487307B2, “Culture method for pluripotent stem cells” (FUJIFILM CORPORATION, priority 2013, dated 2019).

B1: RCP-5: recombinant polypeptide for culture, SEQ ID NO: 19; vitronectin positions 1-55, 302-341, 342-373 (protein)
chain: MDQESCKGRCTEGFNVDKKCQCDELCSYYQSCCTDYTAECKPQVTRGDVFTMPEDEFWGRTSAGTRQPQFISRDWHGVPGQVDAAMAGRIYISGMAPRPSLAKKQRFRHRNRKGYRSQRGHSRGRNQN
modifications: Vitronectin-derived Recombinant Protein (RCP-5)
Turning to B1, the “shape of iPS cells after 10 passages” value in series [1] is recorded as “shape specific to undifferentiated cells”. The “Residual rate of polypeptide (%)” value in series [2] (Essential8) is given as 65.6%; in series [2] (NutriStem), 62.5%; in series [2] (ReproFF2), 42.1%; in series [2] (Stempro hESC SFM) it was 35.3%; in series [2] (TeSR2), 44.0%. Further, the “residual rate of adsorbed polypeptide, medium not containing versus containing 2-mercaptoethanol” value in series [2] is listed as “decreases further with the passage of time”. The “cell growth properties with Essential 8 or NutriStem not containing 2-mercaptoethanol versus media containing it” value in series [3] is given as “better”. For the same molecule, the Cell growth rate in series [3] (setting [4]) is 84.4%; in series [3] (setting [5]), 123%; in series [3] (setting [6]) it was 70.3%; in series [3] (setting [7]), 20.1%; in series [3] (setting [8]), 54.4%.

B2: RCP-11: recombinant polypeptide for culture, SEQ ID NO: 25; vitronectin positions 1-55, 269-277, 295-341, 342-373, C274S (protein)
chain: MDQESCKGRCTEGFNVDKKCQCDELCSYYQSCCTDYTAECKPQVTRGDVFTMPEDESQEESEGSEDIFELLFWGRTSAGTRQPQFISRDWHGVPGQVDAAMAGRIYISGMAPRPSLAKKQRFRHRNRKGYRSQRGHSRGRNQN
modifications: Vitronectin-derived Recombinant Protein (RCP-11)
notes: vitronectin positions 1-55, 269-277, 295-341, 342-373, C274S
Regarding B2, in series [1] (Essential 8, 10 passages, immunostaining, FIGS. 9A to 9F), the “expression of markers specific to undifferentiated cells” value is “expressed NANOG, OCT 3/4, SSEA-3, SSEA-4, Tra-1-60, and Tra-1-81”. Besides, the “shape of iPS cells after 10 passages” value in series [1] was “shape specific to undifferentiated cells”. For the same molecule, the “Residual rate of polypeptide (%)” value in series [2] (Essential8) is 71.8%; in series [2] (NutriStem), 63.5%; in series [2] (ReproFF2), 42.0%; in series [2] (Stempro hESC SFM), 29.4%; in series [2] (TeSR2) it was 49.9%. Also, the “residual rate of adsorbed polypeptide, medium not containing versus containing 2-mercaptoethanol” value in series [2] is “decreases further with the passage of time”. The “cell growth properties with Essential 8 or NutriStem not containing 2-mercaptoethanol versus media containing it” value in series [3] was “better”. For the same molecule, the Cell growth rate in series [3] (setting [4]) is on record as 100%; in series [3] (setting [5]), 129.1%; in series [3] (setting [6]), 84.7%; in series [3] (setting [7]), 13.6%; in series [3] (setting [8]), 71.8%.
